Experiment [1] concerns the target T1, hAPJ (Homo sapiens, UniProt P35414).
T1 construct: expressed in transfected cells; host or cells: CHO-DHFR- cells expressing hAPJ and a CRE-luciferase reporter
T1 sequence (P35414 1-380): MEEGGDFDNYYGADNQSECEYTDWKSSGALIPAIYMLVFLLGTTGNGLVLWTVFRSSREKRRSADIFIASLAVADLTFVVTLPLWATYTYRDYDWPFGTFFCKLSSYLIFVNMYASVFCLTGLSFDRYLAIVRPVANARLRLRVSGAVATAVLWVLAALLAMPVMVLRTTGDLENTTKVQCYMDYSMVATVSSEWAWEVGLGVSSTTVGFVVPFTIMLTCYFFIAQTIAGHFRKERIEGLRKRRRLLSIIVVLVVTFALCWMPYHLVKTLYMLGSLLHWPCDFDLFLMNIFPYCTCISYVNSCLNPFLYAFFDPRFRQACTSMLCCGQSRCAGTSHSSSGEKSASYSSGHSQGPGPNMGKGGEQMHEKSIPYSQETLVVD
The experiment is described as follows: Reporter gene assay (hAPJ-CRE-Luciferase CHO-DHFR- cells) of in vitro activation of Elabela/APJ signaling pathway. It is filed as cell-based. The settings on record: for EC50: 0.6 μM forskolin, 6 hours at 37° C., Bright Glo readout; for blocking or activation of APJ receptor by the antibody: reporter gene assay. As for the experimental part: 35000 hAPJ-CRE-Luciferase expressing CHO-DHFR-cells per well were seeded into 96 well plate, and cultured overnight at 37° C. The culture supernatant was removed the second day, cells were washed twice with serum-free medium, and the residue liquid was aspirated. 50 μL of 0.6 μM forskolin was added in 96 well plate in advance, then 50 μL of Elabela fusion protein or Elabela-11 polypeptide diluted in serum-free medium was added, and incubated at 37° C. for 6 hours. After stimulation, 100 μL Bright Glo chemical luminescence substrate (Promega) was added, then the cell lysate was transferred to white 96 well plate, and the relative intensity of […] was read in the SpectraMax L (Molecular Devices). The data were fitted with prism5.0 and EC50 was calculated.
A general note: A reporter such as luciferase makes a cellular process visible.

Experiment [2] addresses T1, hAPJ. The experiment is described as follows: FACS analysis of binding of APJ antibodies to CHO-DHFR-hAPJ cells. The settings on record: mouse ascites antibody at 500 nM and 4 nM on CHO-DHFR-hAPJ; negative control 500 nM on blank CHO-DHFR- cells. As for the experimental part:
PBS containing EDTA was used to detach and collect 10^5 CHO-DHFR-hAPJ cells into 1.5 mL EP tubes. The supernatant was removed after centrifugation. The negative control sample was resuspended with a FACS loading buffer (PBS, 2% FBS). For the positive control, 200 μL antibody supernatant with certain concentration was added to resuspend cells and then incubated at room temperature; the cells were then centrifuged at 1500 rpm to remove the supernatant, washed with a FACS loading buffer and centrifuged again. The cells were resuspended followed by addition (200 μL/well) of a FITC labeled goat anti-mouse fluorescent secondary antibody at 1:50 dilution and incubated at room temperature for 30 min in the dark. Supernatant was removed after centrifugation, cells were washed with FACS loading buffer, centrifuged again and resuspended with the loading buffer for analysis.
A general note: In flow cytometry, cells or beads pass a laser one at a time.

Where no end group is shown, it is not given here.

Usually EC50 stands for the concentration at which the effect is half-maximal. A low value points to greater potency. With “L5H5 and Linker2-EA4: fusion protein of hAPJ antibody L5H5 and Linker2-EA4 (comprising SEQ ID NO: 123 and SEQ ID NO: 116) (GGGGSGGGGSQRRCLSHKGPMPF; also: fused to hAPJ antibody L5H5)”, the EC50 in experiment [1] amounted to 5.4 nM; in experiment [1] (listed as L5H5 and linker2-EA4), 5.43 nM.

Regarding “L5H5 and Linker2-EA3: fusion protein of hAPJ antibody L5H5 and Linker2-EA3 (comprising SEQ ID NO: 123 and SEQ ID NO: 109) (GGGGSGGGGSQRRCMPLHSRVPMPF; also: fused to hAPJ antibody L5H5)”, the EC50 is 20.3 nM in experiment [1]; 20.3 nM in experiment [1] (listed as L5H5 and linker2-EA3).

Take “L5H5 and Linker2-EA5: fusion protein of hAPJ antibody L5H5 and Linker2-EA5 (comprising SEQ ID NO: 123 and SEQ ID NO: 94) (GGGGSGGGGSQRRCMPLHSRVPAP; also: fused to hAPJ antibody L5H5)”: the EC50 in experiment [1] amounted to 2.6 nM; in experiment [1] (listed as L5H5 and linker2-EA5), 2.55 nM.

B1: L4H4: APJ antibody with light chain variable domain SEQ ID NO: 62 and heavy chain variable domain SEQ ID NO: 67 (antibody, listed as Mus musculus, V domains shown)
VH: EIKLVESGGGLVKPRGSLKLSCAASGFTFSSYAMSWVRQTPEKRLEWVASISSGGSIYLPDSLKGRFTISRDNAWNILYLQMNSLKSEDTAMYYCTRGRGNSSAWFAYWGQGTLVTVSA
VL: DVLMTQTPLSLPVSLGDQASISCRSDQSLVHRTGNTHLDWYLQKPGQSPKLLIYKVSNRFSGVPDRFSGSGSGTDFTLKISRVEAEDLGVYYCFQASHIPFTFGSGTKLEIKR
In the case of B1, the “blocking or activation of APJ receptor by the antibody” value in experiment [1] is “did not block or activate APJ receptor”. Further, the “specific binding to hAPJ (FACS peak shift versus negative control)” value in experiment [2] is listed as “shifted to the right obviously”.

B2: L1H1: APJ antibody with light chain variable domain SEQ ID NO: 59 and heavy chain variable domain SEQ ID NO: 64 (antibody, listed as Mus musculus, V domains shown)
VH: EVQLIETGGGLVQPTGSLQLSCAASGFPFNINAMNWVRQAPGKGLEWVARIRSKSNNYATYYADSVKDRFTISRDDSQSILYLQMNNLKTEDSAMYFCVRGPYLYAMDYWGQGTSVTVSS
VL: DIQMNQSPSSLSASLGDTITITCHASQNIHVWLSWYQQKPGNIPKLLIYKASNLHTGVPSRFSGSGSGTGFTLTISSLQPEDIATYYCQQGHSYPLTFGGGTKLEIKR
In the case of B2, in experiment [1], the “blocking or activation of APJ receptor by the antibody” value is reported as “did not block or activate APJ receptor”. The “specific binding to hAPJ (FACS peak shift versus negative control)” value in experiment [2] is given as “shifted to the right obviously”.
